Test results from patent publication US20250075002A1 (BEIGENE SWITZERLAND, published 2025).
Changes are numbered by the printed parent chain. Read-outs that look alike come from different tables or passages of the source.

Columns and labels:
[1] = biological target: T1, human CD16A (F158) on NK92mi cells (human, UniProt P08637 17-254); experiment: flow cytometry, biotinylated VHH-Fc on NK92mi/CD16A 158F cells, without human IgG1 (CB6)
T1 construct: NK92mi cells co-transduced with CD16A (F158) and FcRgamma cDNAs; also called NK92mi/CD16A F158

[2] = biological target: T2, human CD16B (NA2) on NK92mi cells (human, UniProt O75015 17-200); experiment: flow cytometry on NK92mi/CD16B (NA2) cells
T2 construct: also called NK92mi/CD16B (NA2); NK92mi/CD16B NA2
T2 chain: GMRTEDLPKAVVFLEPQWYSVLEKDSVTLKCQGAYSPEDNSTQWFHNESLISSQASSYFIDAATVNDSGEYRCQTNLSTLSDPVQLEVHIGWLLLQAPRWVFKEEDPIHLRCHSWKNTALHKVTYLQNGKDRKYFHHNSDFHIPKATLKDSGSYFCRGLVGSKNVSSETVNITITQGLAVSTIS

human CD16A-His6 (V158) [3] = biological target: T3, human CD16A-His6 (V158) (human, UniProt P08637 17-208); experiment: SPR; VHH-Fc captured on anti-human Fc surface; row head prints 'KD (nM)', koff/kon shows M
T3 construct: Bought (Sino Biologics) ECD fragment; also called CD16A 158V; human CD16A (V158); not shown: six-histidine tag (His6)

human CD16A-His6 (F158) [4] = biological target: T4, human CD16A-His6 (F158) (human, UniProt P08637 17-208); experiment: as above
T4 construct: Bought ECD fragment; also called human CD16A (F158); not shown: six-histidine tag (His6)

[5] = biological target: T1, human CD16A (F158) on NK92mi cells; experiment: flow cytometry on live NK92mi/CD16A 158F cells
[6] = biological target: T5, human CD16B (NA1) on NK92mi cells (human, UniProt O75015 17-200); experiment: flow cytometry, NK92mi/CD16B (NA1) against NK92mi/CD16A cells (weaker on CD16B)
T5 construct: also called NK92mi/CD16B (NA1); NK92mi/CD16B NA1
T5 chain: T2 chain with S20R, S49N, N66D, I90V

human CD16B-His6 (NA1) [7] = biological target: T6, human CD16B-His6 (NA1) (human, UniProt O75015 17-200); experiment: SPR; VHH-Fc captured on anti-human Fc surface; row head prints 'KD (nM)', taken as M like the rest of the table
T6 construct: Bought ECD fragment; also called CD16B NA1; human CD16B (NA1); not shown: six-histidine tag (His6)
T6 chain: T2 chain with S20R, S49N, N66D, I90V

human CD16B-His6 (NA2) [8] = biological target: T7, human CD16B-His6 (NA2) (human, UniProt O75015 17-200); experiment: as above
T7 construct: Bought ECD fragment; also called CD16B NA2; human CD16B (NA2); not shown: six-histidine tag (His6)
T7 chain: T2 chain

human CD16A-His6 (V158) [9] = biological target: T3, human CD16A-His6 (V158); experiment: SPR; VHH-Fc captured on anti-human Fc surface
human CD16A-His6 (F158) [10] = biological target: T4, human CD16A-His6 (F158); experiment: SPR; VHH-Fc captured on anti-human Fc surface
cyno CD16-His6 [11] = biological target: T8, cyno CD16-His6 (cyno, UniProt Q8SPW2 17-208); experiment: SPR; VHH-Fc captured on anti-human Fc surface; column head prints 'KD (nM)', koff/kon shows M
T8 construct: Bought ECD fragment; not shown: six-histidine tag (His6)

[12] = biological target: T1, human CD16A (F158) on NK92mi cells; experiment: flow cytometry, biotinylated VHH-Fc on NK92mi/CD16A 158F cells, with 10 mg/ml human IgG1 CB6 as competitor
[13] = biological target: T1, human CD16A (F158) on NK92mi cells; experiment: flow cytometry on NK92mi/CD16A 158F cells
[14] = biological target: T9, human CD16A (V158) on NK92mi cells (human, UniProt P08637 17-254); experiment: flow cytometry on NK92mi/CD16A cells (V158 by paragraph 201)
T9 construct: NK92mi cells co-transduced with CD16A (V158) and FcRgamma cDNAs; also called NK92mi/CD16A V158; NK92mi/CD16A

human CD16B-His6 (NA1) [15] = biological target: T6, human CD16B-His6 (NA1); experiment: SPR; VHH-Fc captured on anti-human Fc surface; row head prints 'KD (nM)', taken as M like the rest of the table
human CD16B-His6 (NA2) [16] = biological target: T7, human CD16B-His6 (NA2); experiment: as above
human CD16A-His6 (V158) [17] = biological target: T3, human CD16A-His6 (V158); experiment: SPR; VHH-Fc captured on anti-human Fc surface; row head prints 'KD (nM)', koff/kon shows M; remark: listed apart in the source
human CD16A-His6 (F158) [18] = biological target: T4, human CD16A-His6 (F158); experiment: as above; remark: listed apart in the source
[19] = biological target: T5, human CD16B (NA1) on NK92mi cells; experiment: flow cytometry on live NK92mi/CD16B NA1 cells, 300 nM VHH-Fc
[20] = biological target: T5, human CD16B (NA1) on NK92mi cells; experiment: flow cytometry on NK92mi/CD16B (NA1) cells
human CD16A-His6 (V158) [21] = biological target: T3, human CD16A-His6 (V158); experiment: SPR; VHH-Fc captured on anti-human Fc surface; remark: listed apart in the source
human CD16A-His6 (F158) [22] = biological target: T4, human CD16A-His6 (F158); experiment: SPR; VHH-Fc captured on anti-human Fc surface; remark: listed apart in the source
[23] = biological target: T2, human CD16B (NA2) on NK92mi cells; experiment: flow cytometry on live NK92mi/CD16B NA2 cells, 300 nM VHH-Fc
cyno CD16-His6 [24] = biological target: T8, cyno CD16-His6; experiment: SPR; VHH-Fc captured on anti-human Fc surface
[25] = biological target: T9, human CD16A (V158) on NK92mi cells; experiment: flow cytometry, biotinylated antibody on NK92mi/CD16A V158 cells, with 10 mg/ml huIgG1 as competitor
Target sequence in this assay (P08637 17-254 F176V limits assumed): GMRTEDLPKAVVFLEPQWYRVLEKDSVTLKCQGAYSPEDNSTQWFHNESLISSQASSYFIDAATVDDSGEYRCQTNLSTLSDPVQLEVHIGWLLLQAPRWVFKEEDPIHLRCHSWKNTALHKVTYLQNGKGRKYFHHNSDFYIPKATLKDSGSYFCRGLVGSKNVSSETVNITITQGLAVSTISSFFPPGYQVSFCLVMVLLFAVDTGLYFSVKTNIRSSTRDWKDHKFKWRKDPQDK

[26] = biological target: T9, human CD16A (V158) on NK92mi cells; experiment: flow cytometry, biotinylated antibody on NK92mi/CD16A V158 cells, w/o huIgG
Target sequence in this assay (P08637 17-254 F176V limits assumed): as above

[27] = biological target: T1, human CD16A (F158) on NK92mi cells; experiment: flow cytometry, biotinylated antibody on NK92mi/CD16A F158 cells, with 10 mg/ml huIgG1 as competitor
Target sequence in this assay (P08637 17-254 limits assumed): as the sequence (P08637 17-254 F176V limits assumed) above, with V160F counted along it

human CD16A-His6 (V158) [28] = biological target: T3, human CD16A-His6 (V158); experiment: SPR; BG1222P captured by biotin anti-human Fc VHH on neutravidin, analyte in solution
Target sequence in this assay (P08637 17-208 F176V): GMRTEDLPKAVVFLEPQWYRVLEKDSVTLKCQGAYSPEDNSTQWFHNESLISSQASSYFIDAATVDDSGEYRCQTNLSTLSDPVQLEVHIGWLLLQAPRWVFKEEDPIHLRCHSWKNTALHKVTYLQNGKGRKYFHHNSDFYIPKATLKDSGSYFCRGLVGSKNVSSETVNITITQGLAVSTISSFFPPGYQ

human CD16A-His6 (F158) [29] = biological target: T4, human CD16A-His6 (F158); experiment: as above
Target sequence in this assay (P08637 17-208): as the sequence (P08637 17-208 F176V) above, with V160F counted along it

human CD16A-His6 (V158) [30] = biological target: T3, human CD16A-His6 (V158); experiment: SPR; BG1222P captured by biotin anti-human Fc VHH on neutravidin; column head prints 'KD (nM)', koff/kon shows M
Target sequence in this assay (P08637 17-208 F176V): as the sequence (P08637 17-208 F176V) above

human CD16A-His6 (F158) [31] = biological target: T4, human CD16A-His6 (F158); experiment: as above
Target sequence in this assay (P08637 17-208): as the sequence (P08637 17-208 F176V) above, with V160F counted along it

[32] = biological target: T1, human CD16A (F158) on NK92mi cells; experiment: flow cytometry, biotinylated antibody on NK92mi/CD16A F158 cells, w/o huIgG
Target sequence in this assay (P08637 17-254 limits assumed): as the sequence (P08637 17-254 F176V limits assumed) above, with V160F counted along it

T8 sequence (Q8SPW2 17-208): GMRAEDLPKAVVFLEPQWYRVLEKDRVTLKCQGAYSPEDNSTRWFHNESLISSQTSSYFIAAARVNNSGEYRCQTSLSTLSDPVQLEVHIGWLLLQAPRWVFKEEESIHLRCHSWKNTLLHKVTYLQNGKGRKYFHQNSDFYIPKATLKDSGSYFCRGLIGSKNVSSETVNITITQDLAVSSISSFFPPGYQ

B1: BG523P (VHH-Fc) (VHH)
chain: QVQLVESGGGVVQPGGSLTLSCEASGRTFGSYAVGWFRQALGRGREFVAAIRRSDGTTDYVDSVKGRFTISRDNAKNTVYLQMNSLKPEDTAVYYCAASDSDYEPLGDYWGQGTQVTVSSEPKSSDKTHTCPPCPAPPAAGPSVFLFPPKPKDTLMISRTPEVTCVVVDVSHEDPEVKFNWYVDGVEVHNAKTKPREEQYNSTYRVVSVLTVLHQDWLNGKEYKCKVSNKALAAPIEKTISKAKGQPREPQVYTLPPSREEMTKNQVSLTCLVKGFYPSDIAVEWESNGQPENNYKTTPPVLDSDGSFFLYSKLTVDKSRWQQGNVFSCSVMHEALHNHYTQKSLSLSPGK
notes: Alpaca anti-CD16A VHH fused to a C-terminal human IgG1 mf Fc tag (VHH-Fc); also called parental clone
- EC50 [1]: 1.19 nM
- EMAX (MFI) [1]: 22100 MFI
- EC50 [2]: 28.9 µg/mL
- Kd (human CD16A-His6 (V158) [3]): 0.408 nM
- Kd (human CD16A-His6 (F158) [4]): 0.402 nM
- EC50 [5]: 15.1 nM
- fold change of EC50 against CD16A binding [6]: ~40 fold
- Kd (human CD16B-His6 (NA1) [7]): 1700 nM
- Kd (human CD16B-His6 (NA2) [8]): 4260 nM
- koff (human CD16A-His6 (V158) [9]): 0.000113 s⁻¹
- kon (human CD16A-His6 (V158) [9]): 276000 M⁻¹ s⁻¹
- koff (human CD16A-His6 (F158) [10]): 0.000128 s⁻¹
- kon (human CD16A-His6 (F158) [10]): 319000 M⁻¹ s⁻¹
- Kd (cyno CD16-His6 [11]): 0.289 nM
- EC50 [12]: 6.57 nM
- EMAX (MFI) [12]: 21300 MFI
- EC50 [13]: 10.6 nM
- EMAX (MFI) [13]: 9920 MFI
- EC50 [14]: 0.242 µg/mL
- Kd (human CD16B-His6 (NA1) [15]): 1760 nM
- Kd (human CD16B-His6 (NA2) [16]): 4950 nM
- Kd (human CD16A-His6 (V158) [17]): 0.222 nM
- Kd (human CD16A-His6 (F158) [18]): 0.353 nM
- Binding signal at 300 nM (MFI) [19]: 577 MFI
- EC50 [20]: 9.52 µg/mL
- koff (human CD16A-His6 (V158) [21]): 6.22e-05 s⁻¹
- kon (human CD16A-His6 (V158) [21]): 280000 M⁻¹ s⁻¹
- koff (human CD16A-His6 (F158) [22]): 7.88e-05 s⁻¹
- kon (human CD16A-His6 (F158) [22]): 224000 M⁻¹ s⁻¹
- Binding signal at 300 nM (MFI) [23]: 65 MFI
- koff (cyno CD16-His6 [24]): 8.09e-05 s⁻¹
- kon (cyno CD16-His6 [24]): 280000 M⁻¹ s⁻¹

B2: MUC1×CD16A multi-specific antibody BG1222P (bispecific antibody, human IgG1, kappa)
chain: EVQLVESGGGLVQPGGSLRLSCAASGRTFGSYAVGWFRQAPGKGREFVAAIRRSDATTDYVDSVKGRFTISRDNAKNTVYLQMNSLKPEDTAVYYCAASDSDYEPLGDYWGQGTLVTVSSGGGGSGGGGSEVQLVESGGGLVQPGGSLRLSCAASGRTFGSYAVGWFRQAPGKGREFVAAIRRSDATTDYVDSVKGRFTISRDNAKNTVYLQMNSLKPEDTAVYYCAASDSDYEPLGDYWGQGTLVTVSSEPKSSDKTHTCPPCPAPELLGGPSVFLFPPKPKDTLYITREPEVTCVVVDVSHEDPEVKFNWYVDGVEVHNAKTKPREEQYNSTYRVVSVLTVLHQDWLNGKEYKCKVSNKALPAPIEKTISKAKGQPREPQVYTLPPSREEMTKNQVSLWCLVKGFYPSDIAVEWESNGQPENNYKTTPPVLDSDGSFFLYSKLTVDKSRWQQGNVFSCSVMHEALHNHYTQKSLSLSPGK
heavy: EVQLLESGGGLVQPGGSLRLSCAASGFTFNDYIMSWVRQAPGKGLEWVATVSSGGDNTYYPDSVKGRFTISRDNSKNTLYLQMNSLRAEDTAVYYCTRYGGLGAMDYWGQGTLVTVSSASTKGPSVFPLAPSSKSTSGGTAALGCLVKDYFPEPVTVSWNSGALTSGVHTFPAVLQSSGLYSLSSVVTVPSSSLGTQTYICNVNHKPSNTKVDKKVEPKSCDKTHTCPPCPAPELLGGPSVFLFPPKPKDTLYITREPEVTCVVVDVSHEDPEVKFNWYVDGVEVHNAKTKPREEQYNSTYRVVSVLTVLHQDWLNGKEYKCKVSNKALPAPIEKTISKAKGQPREPQVYTLPPSREEMTKNQVSLSCAVKGFYPSDIAVEWESNGQPENNYKTTPPVLDSDGSFFLVSKLTVDKSRWQQGNVFSCSVMHEALHNHYTQKSLSLSPGK
light: DIQMTQSPSSLSASVGDRVTITCRASGNIHNYLTWYQQKPGKAPKLLIYNAKTLASGVPSRFSGSGSGTDFTLTISSLQPEDFATYYCQHFWSVPYTFGQGTKLEIKRTVAAPSVFIFPPSDEQLKSGTASVVCLLNNFYPREAKVQWKVDNALQSGNSQESVTEQDSKDSTYSLSSTLTLSKADYEKHKVYACEVTHQGLSSPVTKSFNRGEC
notes: '2+1' IgG-like format: chain 1 = tandem BG526P VHHs-hinge-Fc (knob), chain 2 = huBG219P-E39 heavy chain (hole), chain 3 = huBG219P-E39 kappa light chain; YTE mutations in both Fc; also called BG11222P
- EC50 [25]: 33.9 nM
- EC50 [26]: 0.35 nM
- EC50 [27]: 7.99 nM
- koff (human CD16A-His6 (V158) [28]): 4.22e-05 s⁻¹
- kon (human CD16A-His6 (V158) [28]): 886000 M⁻¹ s⁻¹
- koff (human CD16A-His6 (F158) [29]): 8.52e-05 s⁻¹
- kon (human CD16A-His6 (F158) [29]): 579000 M⁻¹ s⁻¹
- Kd (human CD16A-His6 (V158) [30]): 0.0477 nM
- Kd (human CD16A-His6 (F158) [31]): 0.147 nM
- EC50 [32]: 0.97 nM
